In patent US20260193293A1, “PEPTIDES CAPABLE OF INHIBITING PROTEIN-PROTEIN INTERACTIONS AT GABAB1A SUBUNIT AND USES THEREOF” (UNIVERSITY OF COPENHAGEN, priority 2022, published 2026):
Starred links: 1 amine or outer side, 2 acyl side, 3 side chain; linkers in the order of their positions; H or OH if unused. Non-standard residues stand in square brackets, D forms with d. Tyr(Bzl) = Obtyr, O-benzyl-L-tyrosine, O=C([C@H](Cc1ccc(OCc2ccccc2)cc1)N[*:1])[*:2]; Tyr(Et) = Oetyr, O-ethyl-L-tyrosine, CCOc1ccc(C[C@H](N[*:1])C(=O)[*:2])cc1; Tyr(Me) = Omtyr, O-methyl-L-tyrosine, COc1ccc(C[C@H](N[*:1])C(=O)[*:2])cc1; Obtyr = O-benzyl-L-tyrosine, O=C([C@H](Cc1ccc(OCc2ccccc2)cc1)N[*:1])[*:2]; Oetyr = O-ethyl-L-tyrosine, CCOc1ccc(C[C@H](N[*:1])C(=O)[*:2])cc1; Phe(4-NH2) = Nc1ccc(C[C@H](N)C(=O)O)cc1; 2Nal = N[C@@H](Cc1ccc2ccccc2c1)C(=O)O; Sar = CNCC(=O)O

B1: PWAIVWG(N-Me-G)TVSRED (peptide)
peptide: Ac-PWAIVWG[Sar]TVSRED-NH2
SMILES: CC[C@H](C)[C@H](NC(=O)[C@H](C)NC(=O)[C@H](Cc1c[nH]c2ccccc12)NC(=O)[C@@H]1CCCN1C(C)=O)C(=O)N[C@H](C(=O)N[C@@H](Cc1c[nH]c2ccccc12)C(=O)NCC(=O)N(C)CC(=O)N[C@H](C(=O)N[C@H](C(=O)N[C@@H](CO)C(=O)N[C@@H](CCCNC(=N)N)C(=O)N[C@@H](CCC(=O)O)C(=O)N[C@@H](CC(=O)O)C(N)=O)C(C)C)[C@@H](C)O)C(C)C
B2: EDDSDVWW(Obtyr)GADTD (peptide)
peptide: Ac-EDDSDVWW[Tyr(Bzl)]GADTD-NH2
SMILES: CC(=O)N[C@@H](CCC(=O)O)C(=O)N[C@@H](CC(=O)O)C(=O)N[C@@H](CC(=O)O)C(=O)N[C@@H](CO)C(=O)N[C@@H](CC(=O)O)C(=O)N[C@H](C(=O)N[C@@H](Cc1c[nH]c2ccccc12)C(=O)N[C@@H](Cc1c[nH]c2ccccc12)C(=O)N[C@@H](Cc1ccc(OCc2ccccc2)cc1)C(=O)NCC(=O)N[C@@H](C)C(=O)N[C@@H](CC(=O)O)C(=O)N[C@H](C(=O)N[C@@H](CC(=O)O)C(N)=O)[C@@H](C)O)C(C)C
B3: EDDSDVWW(Oetyr)GADTD (peptide)
peptide: Ac-EDDSDVWW[Tyr(Et)]GADTD-NH2
SMILES: CCOc1ccc(C[C@H](NC(=O)[C@H](Cc2c[nH]c3ccccc23)NC(=O)[C@H](Cc2c[nH]c3ccccc23)NC(=O)[C@@H](NC(=O)[C@H](CC(=O)O)NC(=O)[C@H](CO)NC(=O)[C@H](CC(=O)O)NC(=O)[C@H](CC(=O)O)NC(=O)[C@H](CCC(=O)O)NC(C)=O)C(C)C)C(=O)NCC(=O)N[C@@H](C)C(=O)N[C@@H](CC(=O)O)C(=O)N[C@H](C(=O)N[C@@H](CC(=O)O)C(N)=O)[C@@H](C)O)cc1
B4: EDDSDVWW(Aphe)GADTD (peptide)
peptide: Ac-EDDSDVWW[Phe(4-NH2)]GADTD-NH2
SMILES: CC(=O)N[C@@H](CCC(=O)O)C(=O)N[C@@H](CC(=O)O)C(=O)N[C@@H](CC(=O)O)C(=O)N[C@@H](CO)C(=O)N[C@@H](CC(=O)O)C(=O)N[C@H](C(=O)N[C@@H](Cc1c[nH]c2ccccc12)C(=O)N[C@@H](Cc1c[nH]c2ccccc12)C(=O)N[C@@H](Cc1ccc(N)cc1)C(=O)NCC(=O)N[C@@H](C)C(=O)N[C@@H](CC(=O)O)C(=O)N[C@H](C(=O)N[C@@H](CC(=O)O)C(N)=O)[C@@H](C)O)C(C)C
B5: EDDSDVWW(Omtyr)GADTD (peptide)
peptide: Ac-EDDSDVWW[Tyr(Me)]GADTD-NH2
SMILES: COc1ccc(C[C@H](NC(=O)[C@H](Cc2c[nH]c3ccccc23)NC(=O)[C@H](Cc2c[nH]c3ccccc23)NC(=O)[C@@H](NC(=O)[C@H](CC(=O)O)NC(=O)[C@H](CO)NC(=O)[C@H](CC(=O)O)NC(=O)[C@H](CC(=O)O)NC(=O)[C@H](CCC(=O)O)NC(C)=O)C(C)C)C(=O)NCC(=O)N[C@@H](C)C(=O)N[C@@H](CC(=O)O)C(=O)N[C@H](C(=O)N[C@@H](CC(=O)O)C(N)=O)[C@@H](C)O)cc1
B6: peptide 33 (Ac-EDDD(Obtyr)…-NH2) (peptide)
peptide: Ac-EDDD[Obtyr]IDWYDSDDD-NH2
SMILES: CC[C@H](C)[C@H](NC(=O)[C@H](Cc1ccc(OCc2ccccc2)cc1)NC(=O)[C@H](CC(=O)O)NC(=O)[C@H](CC(=O)O)NC(=O)[C@H](CC(=O)O)NC(=O)[C@H](CCC(=O)O)NC(C)=O)C(=O)N[C@@H](CC(=O)O)C(=O)N[C@@H](Cc1c[nH]c2ccccc12)C(=O)N[C@@H](Cc1ccc(O)cc1)C(=O)N[C@@H](CC(=O)O)C(=O)N[C@@H](CO)C(=O)N[C@@H](CC(=O)O)C(=O)N[C@@H](CC(=O)O)C(=O)N[C@@H](CC(=O)O)C(N)=O
B7: peptide 21 (Ac-EDDD(2Nala)…-NH2) (peptide)
peptide: Ac-EDDD[2Nal]IDWGPTSDDD-NH2
SMILES: CC[C@H](C)[C@H](NC(=O)[C@H](Cc1ccc2ccccc2c1)NC(=O)[C@H](CC(=O)O)NC(=O)[C@H](CC(=O)O)NC(=O)[C@H](CC(=O)O)NC(=O)[C@H](CCC(=O)O)NC(C)=O)C(=O)N[C@@H](CC(=O)O)C(=O)N[C@@H](Cc1c[nH]c2ccccc12)C(=O)NCC(=O)N1CCC[C@H]1C(=O)N[C@H](C(=O)N[C@@H](CO)C(=O)N[C@@H](CC(=O)O)C(=O)N[C@@H](CC(=O)O)C(=O)N[C@@H](CC(=O)O)C(N)=O)[C@@H](C)O
B8: peptide 34 (Ac-EDDD(Oetyr)…-NH2) (peptide)
peptide: Ac-EDDD[Oetyr]IDWGPTSDDD-NH2
SMILES: CCOc1ccc(C[C@H](NC(=O)[C@H](CC(=O)O)NC(=O)[C@H](CC(=O)O)NC(=O)[C@H](CC(=O)O)NC(=O)[C@H](CCC(=O)O)NC(C)=O)C(=O)N[C@H](C(=O)N[C@@H](CC(=O)O)C(=O)N[C@@H](Cc2c[nH]c3ccccc23)C(=O)NCC(=O)N2CCC[C@H]2C(=O)N[C@H](C(=O)N[C@@H](CO)C(=O)N[C@@H](CC(=O)O)C(=O)N[C@@H](CC(=O)O)C(=O)N[C@@H](CC(=O)O)C(N)=O)[C@@H](C)O)[C@@H](C)CC)cc1
B9: peptide 32 (Ac-EDDD(Oetyr)…-NH2) (peptide)
peptide: Ac-EDDD[Oetyr]IDWYDSDDD-NH2
SMILES: CCOc1ccc(C[C@H](NC(=O)[C@H](CC(=O)O)NC(=O)[C@H](CC(=O)O)NC(=O)[C@H](CC(=O)O)NC(=O)[C@H](CCC(=O)O)NC(C)=O)C(=O)N[C@H](C(=O)N[C@@H](CC(=O)O)C(=O)N[C@@H](Cc2c[nH]c3ccccc23)C(=O)N[C@@H](Cc2ccc(O)cc2)C(=O)N[C@@H](CC(=O)O)C(=O)N[C@@H](CO)C(=O)N[C@@H](CC(=O)O)C(=O)N[C@@H](CC(=O)O)C(=O)N[C@@H](CC(=O)O)C(N)=O)[C@@H](C)CC)cc1
B10: peptide 35 (Ac-EDDD(Obtyr)…-NH2) (peptide)
peptide: Ac-EDDD[Obtyr]IDWGPTSDDD-NH2
SMILES: CC[C@H](C)[C@H](NC(=O)[C@H](Cc1ccc(OCc2ccccc2)cc1)NC(=O)[C@H](CC(=O)O)NC(=O)[C@H](CC(=O)O)NC(=O)[C@H](CC(=O)O)NC(=O)[C@H](CCC(=O)O)NC(C)=O)C(=O)N[C@@H](CC(=O)O)C(=O)N[C@@H](Cc1c[nH]c2ccccc12)C(=O)NCC(=O)N1CCC[C@H]1C(=O)N[C@H](C(=O)N[C@@H](CO)C(=O)N[C@@H](CC(=O)O)C(=O)N[C@@H](CC(=O)O)C(=O)N[C@@H](CC(=O)O)C(N)=O)[C@@H](C)O

target: Sushi domains (SD1/2) protein of the GABAB1a (GB1a) subunit, recombinant; assay: FP competition with AJAP-1probe
Sequence (Q9Z0U4 29-158): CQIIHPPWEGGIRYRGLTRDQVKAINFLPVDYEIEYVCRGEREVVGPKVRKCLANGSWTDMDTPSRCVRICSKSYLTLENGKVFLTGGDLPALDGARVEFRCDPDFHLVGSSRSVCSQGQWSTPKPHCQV

Binder	Ki
Ac-DDSDVWWGGADTDYADG-NH2	687 nM
Ac-EDDSDVWWGGADTDY-NH2 [peptide 13 (…)]	581 nM
Ac-DDSDVWWGG-NH2	2630 nM
Ac-TTETEFIAWGPTGDE-NH2	73 nM
Ac-SADAEEDDSDVWWGG-NH2 [peptide 12 (…)]	1300 nM
Ac-WAIVWGPTVSREDGG-NH2	1350 nM
Ac-DSADAEEDDSDVWWG-NH2 [peptide 11 (…)]	5030 nM
Ac-ADAEEDDSDVWWGGA-NH2	1530 nM
Ac-TETEFIAWGPTGDED-NH2 [peptide 15 (Ac-…-NH2)]	23 nM
Ac-PWAIVWGPTVSREDG-NH2 [peptide 14 (…)]	465 nM
Ac-AIVWGPTVSREDGGD-NH2	637 nM

target: Sushi domains (SD1/2) protein of GABAB1a (GB1a); assay: FP competition vs TAMRA AJAP-1probe
Sequence (Q9Z0U4 29-158): as above

Binder	Ki
B1	525 nM
B2	88 nM
B3	113 nM
B4	102 nM
B5	109 nM

target: Sushi domains (SD1/2) protein of the GABAB1a (GB1a) subunit, recombinant; assay: FP competition

Binder	Ki	fold higher affinity than APPWT	fold better affinity than 9
B1	525 nM	–	–
B2	100 nM	–	–
B3	100 nM	–	–
B4	100 nM	–	–
Ac-EDDSDVWWGPTGDED-NH2 [hybrid peptide X (Ac-…-NH2)]	–	10 fold	–
B5	100 nM	–	–
Ac-ETEFIAWGPTGDED-NH2 [AJAP-1WT (Ac-…-NH2)]	32 nM	–	–
Ac-TETEFIAWGPTGDED-NH2 [peptide 15 (Ac-…-NH2)]	26 nM	–	–
Ac-EDDSWIWWGPTGDED-NH2 [peptide 27 (Ac-…-NH2)]	–	–	3.8 fold

target: Sushi domains (SD1/2) protein of the GABAB1a (GB1a) subunit, recombinant; assay: FP competition; remark: another data set of the same source

Binder	Ki
B6	9.3 nM
B7	5.3 nM
EDDDAIDWYDSDDD (N-terminal acetyl; C-terminal amide; 3-(2-naphthyl)-L-alanine (2Nala) at 5) [peptide 20 (Ac-EDDD(2Nala)…-NH2)]	1.5 nM
B8	6.5 nM
Ac-EDDDWIDWYDSDDD-NH2 [peptide 16 (Ac-…-NH2)]	3.2 nM
Ac-EDDSWIWWYGADTD-NH2 [peptide 28 (Ac-…-NH2)]	18 nM
Ac-EDDSWIDWGPTGDED-NH2 [peptide 29 (Ac-…-NH2)]	5.6 nM
Ac-EDDSWIDWYGADTD-NH2 [peptide 30 (Ac-…-NH2)]	11 nM
Ac-EDDDWIDWGPTSDDD-NH2 [peptide 17 (Ac-…-NH2)]	4 nM
Ac-EDDSDVWWGPTGDED-NH2 [hybrid peptide X (Ac-…-NH2)]	62 nM
B9	5.3 nM
Ac-ETEFIAWGPTGDED-NH2 [AJAP-1WT (Ac-…-NH2)]	31 nM
B10	9.5 nM
Ac-EDDYIDWYDSDDD-NH2 [peptide 18 (Ac-…-NH2)]	4.6 nM
Ac-ETEFIAWGGADTD-NH2 [hybrid peptide Y (Ac-…-NH2)]	354 nM
Ac-EDDYIDWGPTSDDD-NH2 [peptide 19 (Ac-…-NH2)]	3.8 nM
Ac-ETEFIAWYGADTD-NH2 [peptide 37 (Ac-…-NH2)]	95 nM
Ac-EDDSWIWWGPTGDED-NH2 [peptide 27 (Ac-…-NH2)]	16 nM
